# According to patent publication EP4554620A1:
# How the values were obtained:
# [1] = target: Human TIGIT residues 23-128 with C-terminal HIS tag (human) (UniProt Q495A1); assay: SPR, amine coupling, pH 7.4 against pH 6.0
# [2] = target: Human TIGIT residues 23-128 ASP63A mutant (human) (UniProt Q495A1); assay: SPR, capture immobilization, TIGIT alanine mutants
# [3] = target: Human TIGIT residues 23-128 HIS76A mutant (human) (UniProt Q495A1); assay: SPR, capture immobilization, TIGIT alanine mutants
# [4] = target: Human TIGIT residues 23-128 ILE68A mutant (human) (UniProt Q495A1); assay: SPR, capture immobilization, TIGIT alanine mutants
# [5] = target: Human TIGIT residues 23-128 LEU73A mutant (human) (UniProt Q495A1); assay: SPR, capture immobilization, TIGIT alanine mutants
# [6] = target: Human TIGIT residues 23-128 LEU73A/HIS76A double mutant (human) (UniProt Q495A1); assay: SPR, capture immobilization, TIGIT alanine mutants
# [7] = target: Human TIGIT residues 23-128 PRO79A mutant (human) (UniProt Q495A1); assay: SPR, capture immobilization, TIGIT alanine mutants
# Chain of Human TIGIT residues 23-128 PRO79A mutant (human) (Q495A1 other isoform, or with tags, fused parts or gaps mutant, form in doubt): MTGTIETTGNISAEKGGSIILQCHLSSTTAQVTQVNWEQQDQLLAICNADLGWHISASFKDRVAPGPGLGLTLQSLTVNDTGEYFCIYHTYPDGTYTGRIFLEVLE
# Chain of Human TIGIT residues 23-128 ILE68A mutant (human) (Q495A1 other isoform, or with tags, fused parts or gaps mutant, form in doubt): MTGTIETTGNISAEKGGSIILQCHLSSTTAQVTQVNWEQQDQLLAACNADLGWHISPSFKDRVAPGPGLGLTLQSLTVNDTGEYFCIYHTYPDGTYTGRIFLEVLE
# Chain of Human TIGIT residues 23-128 ASP63A mutant (human) (Q495A1 other isoform, or with tags, fused parts or gaps mutant, form in doubt): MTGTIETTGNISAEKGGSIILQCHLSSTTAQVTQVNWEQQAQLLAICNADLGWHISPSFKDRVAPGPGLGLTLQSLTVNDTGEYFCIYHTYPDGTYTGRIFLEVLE
# Chain of Human TIGIT residues 23-128 HIS76A mutant (human) (Q495A1 other isoform, or with tags, fused parts or gaps mutant, form in doubt): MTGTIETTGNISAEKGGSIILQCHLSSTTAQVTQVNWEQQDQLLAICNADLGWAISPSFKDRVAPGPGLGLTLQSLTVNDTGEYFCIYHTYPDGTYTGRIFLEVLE
# Chain of Human TIGIT residues 23-128 LEU73A mutant (human) (Q495A1 other isoform, or with tags, fused parts or gaps mutant, form in doubt): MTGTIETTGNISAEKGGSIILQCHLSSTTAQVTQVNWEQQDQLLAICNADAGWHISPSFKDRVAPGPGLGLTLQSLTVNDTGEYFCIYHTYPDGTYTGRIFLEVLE
# Chain of Human TIGIT residues 23-128 LEU73A/HIS76A double mutant (human) (Q495A1 other isoform, or with tags, fused parts or gaps mutant, form in doubt): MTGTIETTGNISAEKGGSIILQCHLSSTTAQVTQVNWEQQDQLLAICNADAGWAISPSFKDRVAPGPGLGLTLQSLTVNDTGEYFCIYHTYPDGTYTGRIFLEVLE
# Chain of Human TIGIT residues 23-128 with C-terminal HIS tag (human) (Q495A1 23-128, form in doubt): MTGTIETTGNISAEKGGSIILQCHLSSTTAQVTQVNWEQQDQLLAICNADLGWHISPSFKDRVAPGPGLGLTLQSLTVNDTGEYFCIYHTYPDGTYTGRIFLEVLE
substance,measurement,setting,value
A1217 (Ociperlimab) (antibody),fold increase of binding affinity (KD) from pH 7.4 to pH 6.0,[1],17 fold
same,fold decrease in binding affinity against WT TIGIT,[2],7 fold
same,fold reduction of binding against wild-type TIGIT,[3],> 10 fold
same,fold decrease in binding affinity against WT TIGIT,[4],30 fold
same,fold reduction of binding against wild-type TIGIT,[4],> 10 fold
same,fold reduction in binding affinity against WT TIGIT,[5],7 fold
same,fold reduction of binding against wild-type TIGIT,[6],> 10 fold
same,fold lower binding affinity against WT TIGIT,[7],3 fold
